B1: T-116 (peptide)
peptide: DAWERFRALFKELADYFRLGQSTEELRVRLASHLRKLRKRLLRDADDLQKRLAVYQA
B2: LDLR (receptor)
chain: not shown
B3: T-112 (peptide)
peptide: YKDFGERVERALGRQLEMLGQSTEELRVRLASHLRKLRKRLLRDADDLQKRLAVYQA
B4: T-114 (peptide)
peptide: LKDFGERVARALREQFEDLGQSTEELRVRLASHLRKLRKRLLRDADDLQKRLAVYQA
B5: T-113 (peptide)
peptide: WKDFGERVERALREQFEDLGQSTEELRVRLASHLRKLRKRLLRDADDLQKRLAVYQA
B6: T-069 (peptide)
peptide: VRGRLVQYRGEVQAMLGQSTEELRVRLASHLRKLRKRLLRDADDLQKRLAVYQA
B7: T-068 (peptide)
peptide: MEDVRGRLVQYRGEVQAMLGQSTEELRVRLASHLRKLRKRLLRDADDLQKRLAVYQA
B8: T-117 (peptide)
peptide: RSGADALESALKELKRFIREWTLGQSTEELRVRLASHLRKLRKRLLRDADDLQKRLAVYQA
B9: T-118 (peptide)
peptide: LVARLLKELTAAMARLGRDAEDIRGNLFQYFDEVWAMLGQSTEELRVRLASHLRKLRKRLLRDADDLQKRLAVYQA
B10: T-120 (peptide)
peptide: DVKRLLKELTEAMAELARKAEDIRGNLDQYFRKVFAMLGQSTEELRVRLASHLRKLRKRLLRDADDLQKRLAVYQA
B11: T-115 (peptide)
peptide: DHINKVQRKVTHEIERLFLGQSTEELRVRLASHLRKLRKRLLRDADDLQKRLAVYQA

Legend:
[1] = target: T1, Low Density Lipoprotein Receptor (LDLR), recombinant (UniProt P01130 22-788); test: SPR; HBS + 0.005% P20, peptide
[2] = target: T1, Low Density Lipoprotein Receptor …; test: SPR; HBS + 0.05% P20
[3] = target: T1, Low Density Lipoprotein Receptor …; test: SPR; HBS + 0.005% P20, DMPC complex
[4] = target: T1, Low Density Lipoprotein Receptor …; test: SPR; HBS + 0.005% P20, DMPC complex; remark: listed apart in the source
[5] = target: T-077; test: SPR; HBS + 0.005% P20, DMPC complex
[6] = target: T-119; test: SPR; HBS + 0.005% P20, peptide
[7] = target: T-071; test: SPR; HBS + 0.005% P20, DMPC complex
[8] = target: T-053; test: SPR; HBS + 0.05% P20
[9] = target: T-060; test: SPR; HBS + 0.05% P20
[10] = target: T-050; test: SPR; HBS + 0.05% P20
[11] = target: T1, Low Density Lipoprotein Receptor …; test: SPR; HBS + 0.005% P20, peptide; remark: listed apart in the source

| Binder | Kd [1] | Kd [2] | Kd [3] | Kd [4] | Kd [11] | other results |
| --- | --- | --- | --- | --- | --- | --- |
| DAWERFRALFKELADYFR [T-087] | 2.27 µM |  |  |  |  |  |
| LASHLRKLRKRLLRDADDLQKRLAVYQA [T-044] |  | 7.97 µM | 1160 µM |  |  |  |
| B1 | 4.53 µM | 1.21 µM |  | 0.28 µM |  |  |
| EELRVRLASHLRKLRKRLLR [T-074] | 2.37 µM | 2.43 µM |  | 77 µM |  |  |
| B2 |  |  |  |  |  | Kd [5]: 189 µM; Kd [6]: 2.31 µM; Kd [7]: 348 µM; Kd [8]: 122 µM; Kd [9]: 150 µM; Kd [10]: 528 µM |
| HLRKLVKRLLRSLVSQYRQTVTDYGEDL [T-111] | 2.98 µM | 1.06 µM |  | 0.46 µM |  |  |
| LASHLRKLRKRLLR [T-072] | 8.27 µM | 4.85 µM |  |  |  |  |
| RSGADALESALKELKRFIREWT [T-101] | 11.7 µM |  |  |  |  |  |
| B3 | 1.14 µM | 0.72 µM |  | 0.17 µM |  |  |
| B4 | 2.7 µM | 1.27 µM |  | 0.17 µM |  |  |
| B5 | 1.44 µM | 1.82 µM |  | 0.29 µM |  |  |
| B6 |  | 2.39 µM | 0.56 µM |  | 1.12 µM |  |
| LARHLRKLRKRLARSLVSQYFQTVTDYGKDLM [T-066] |  | 2.42 µM | 0.11 µM |  | 2.06 µM |  |
| LASHLRKLRKRLLRSLVSQYFQTVTDYGKDLM [T-065] |  | 0.75 µM | 0.18 µM |  | 1.07 µM |  |
| LASHLRKLRKRLLRDADDLQKRLAVYQAGAREGAER [T-046] |  | 3.56 µM | 56.3 µM |  | 6.72 µM |  |
| LARHLRKLRKRLARDADDLQKRLAVYQAGAREGAER [T-047] |  | 3.26 µM |  |  |  |  |
| LARHLRKLRKRLARDGDKLQDRLAEYQARAKEAFDR [T-049] |  | 3.26 µM |  |  |  |  |

| Binder | Kd [1] | Kd [2] | Kd [3] | Kd [4] | Kd [11] | other results |
| --- | --- | --- | --- | --- | --- | --- |
| LASHLRKLRKRLLRDGDKLQDRLAEYQARAKEAFDR [T-048] |  | 5.24 µM | 666 µM |  |  |  |
| B7 |  | 1.98 µM | 0.66 µM |  | 1.48 µM |  |
| B8 | 0.4 µM | 4.49 µM |  | 0.01 µM |  |  |
| LVQYRGEVQAMLGQSTEELRVRLASHLRKLRKRLLRDADDLQKRLAVYQA [T-070] |  |  | 0.68 µM |  | 1.38 µM |  |
| HLRKLRKRLLRSLVSQYRQTVTDYGKDL [T-110] | 2.97 µM | 1.15 µM |  | 1.2 µM |  |  |
| HLRKLRKRLLRSLVSQYFQTVTDYGKDL [T-109] | 3.15 µM | 1.2 µM |  | 1.05 µM |  |  |
| B9 | 0.32 µM | 2.72 µM |  | 94.3 µM |  |  |
| B10 | 0.8 µM | 11.8 µM |  |  |  |  |
| HLRKLRKRLLRDGDKLQKRLAEYQARAKEAFDR [T-052] |  | 1.75 µM | 202 µM |  | 1.18 µM |  |
| HLRKLRKRLLRDGDKLQDRLAEYQARAREAFDR [T-055] |  | 5.09 µM |  |  |  |  |
| HLRKLRKRLLRDGDKLYDRLAEYYARAKEAFDR [T-062] |  | 2.23 µM | 52.9 µM |  | 9.36 µM |  |
| HLRKLRKRLLRDGDKLQDRLAEYQARAKEAFDR [T-040] |  | 5.54 µM |  |  | 882 µM |  |
| HLRKLVKRLFRDGDKLQDRLAEYQARAKEAFDR [T-059] |  | 7.27 µM |  |  | 7.72 µM |  |
| HLRRLRRRLLRDGDKLQDRLAEYQARAKEAFDR [T-041] |  | 7.49 µM |  |  | 701 µM |  |
| HLRKLRKRLLRDADDLQKRLAEYQARAKEAFDR [T-064] |  | 6.81 µM |  |  |  |  |
| B11 | 0.42 µM | 2.81 µM |  | 0.21 µM |  |  |

From patent publication US20260115250A1 (published 2026)
